As usually defined, the stoichiometry N is the number of molecules, sites or subunits per partner or assembly.

This assay has as its target Hemiselmis andersenii phycobiliprotein α subunit Haα^OB1 (open-braced form) (Hemiselmis andersenii). Kind of assay: crystal structure.

The substance “Hemiselmis andersenii phycobiliprotein α subunit Haα^OB1 (open-braced form) (natural protein)” returned a stoichiometry N of 2.
